According to US12618050B2, “Engineered polypeptides that exhibit increased catalytic efficiency for unnatural cofactors and uses thereof” (The Regents of the University of California, priority 2018, dated 2026):

How the values were obtained:
[1] = GDH total turnover number (TTN) determination; format: biochemical; conditions: NMN^+, GDH 0.47 μM, 33 mM ketoisophorone, 96 hours
Description: GDH Total Turnover Number (TTN) Determination. Total turnover number (TTN) was determined by the number of moles of product formed divided by the moles of purified GDH added. The assays were performed in reaction buffer A, as shown above, at 30° C. Ketoisophorone (33 mM) was used as the substrate. The reaction was started by spiking purified proteins (0.0132 mg mL^−1 or 0.47 μM for GDH, 0.75 mg mL^−1 for XenA). Samples were taken every 12 hours for 96 hours. The extraction and GC-FID analysis were performed using a similar method as mentioned above.

[2] = XenA-GDH coupled cycling assay, trans-2-hexen-1-al; format: biochemical; conditions: 50 mM, 24 hours, NMN^+
Description: (§1) Coupled enzymatic biotransformation. All biotransformation reactions were performed in buffer A at 30° C. for 24 hours. Reaction buffer A, modified from that disclosed in Chaparro-Riggers et al., Advanced Synthesis & Catalysis 349(8-9):1521-1531 (2007)), contained 200 mM potassium phosphate buffer (pH 7.5), 1 M NaCl, 300 mM D-glucose, 6 mM NMN^+ (or NADP^+ as the positive control), and substrates. All assays were performed in triplicate, with no proteins or no cofactors added as negative controls. The protein loading for GDH variants was kept at 0.33 mg mL^−1 or 11.7 μM. The various enzymes for biotransformation reactions were added at the concentration of 0.75 mg mL^−1.
(§2) For XenA-GDH coupled cycling assays, the substrates ketoisophorone, citral, or trans-2-hexen-1-al were added at 33 mM, 10 mM, or 50 mM, respectively. […] Conversion was determined via GC-FID with octanol as an internal standard (see below). […] Nitrofurazone conversion was measured spectroscopically at 400 nm and quantification was performed using a standard curve. The initial levels of the above-mentioned substrates were mainly determined by their solubility in the assay buffer. […] The reduction of cytochrome c was measured spectroscopically at 550 nm. and the quantification was performed using extinction coefficient ε550 of 21.1 mM^−1 cm^−1.

cytochrome c = assay: BM3-GDH coupled cycling assay; format: biochemical; conditions: BM3 W1046S, NMNH generated in situ
Description: as §1, §2

[3] = GDH enzymatic assay with NADP^+ as cofactor; format: biochemical; conditions: for decrease of catalytic efficiency on NADP^+: versus wild type
Description: (§3) GDH enzymatic assays. The GDH activity was measured as described in Hilt et al. (Biochimica et biophysica acta 1076(2):298-304 (1991)). The reactions were started by adding the purified protein to the assay mixture containing 35 mM Tris-HCl buffer (pH 8.0), 3 mM NAD^+, NADP^+ or NMN^+ and 140 mM glucose. The absorbance variation at 340 nm was detected by a spectrophotometer at 25° C.

[4] = NfsB-GDH coupled cycling assay; format: biochemical; conditions: NMN^+
Description: as §1, §2

[5] = Protein expression levels of GDH variants; set-up: species or system Escherichia coli; conditions: expressed in E. coli
Description: Proteins were purified as 6×His tag fusion at the N-terminus. E. coli BL21 (DE3) with plasmids were inoculated into LB medium with 200 mg L^−1 ampicillin. Cells were induced with 0.5 mM IPTG and expressed for 24 hours at 30° C. with shaking at 250 rpm. BM3 cytochrome P450 was extracted with the EMD Millipore™ BugBuste Plus Lysonase Kit and purified using the HisPur™ Ni-NTA Superflow Purification System according to the manufacturer's instructions. Other proteins were purified using His-Spin Protein Miniprep kit (Zymo Research Corporation, CA). The purified proteins were quantified by Bradford assay.

[6] = XenA-GDH coupled cycling assay, citral; format: biochemical; conditions: 10 mM citral, 24 hours, NMN^+
Description: as §1, §2

[7] = OYE3-GDH coupled cycling assay; format: biochemical; conditions: OYE3, NMN^+
Description: as §1, §2

[8] = GDH enzymatic assay with NMN^+ as cofactor; format: biochemical; conditions: for overall specificity switch towards NMN^+ from NADP^+ / overall specificity switch towards NMN^+ from NAD^+: compared to wild type
Description: as §3

[9] = XenA-GDH coupled cycling biotransformation of ketoisophorone to levodione; format: biochemical
Description: as §1
For XenA-GDH coupled cycling assays, the substrates ketoisophorone, citral, or trans-2-hexen-1-al were added at 33 mM, 10 mM, or 50 mM, respectively. For the OYE3-GDH coupled cycling assays, the substrate 4-phenyl-3-butyn-2-one was added at 5 mM. At various time points over 24 hours, 100 μL samples were taken and extracted with 100 μL ethyl acetate. Conversion was determined via GC-FID with octanol as an internal standard (see below). For NfsB-GDH coupled cycling assays, 2 mM nitrofurazone was used as the substrate. Nitrofurazone conversion was measured spectroscopically at 400 nm and quantification was performed using a standard curve. The initial levels of the above-mentioned substrates were mainly determined by their solubility in the assay buffer. For BM3-GDH coupled cycling assays, 50 μM cytochrome c (C2506 Sigma) was used as the substrate. The reduction of cytochrome c was measured spectroscopically at 550 nm. and the quantification was performed using extinction coefficient ε550 of 21.1 mM^−1 cm^−1.
Coupled cycling conditions: All biotransformation reactions were performed in buffer A at 30° C. for 24 hours. Reaction buffer A contained 200 mM potassium phosphate buffer (pH 7.5), 1 M NaCl, 300 mM D-glucose, 6 mM NMN^+. Substrate ketoisophorone was added at 5 g/L. At various time points over 24 hours, 100 μL samples were taken and extracted with 100 μL ethyl acetate. Conversion was determined via GC-FID with octanol as an internal standard (see below).

[10] = GDH enzymatic assay with NAD^+ as cofactor; format: biochemical; conditions: for decrease of catalytic efficiency on NAD^+: versus wild type
Description: as §3

B1: I195R-A93K-Y39Q: Bs GDH with I195R, A93K, Y39Q substitutions (SEQ ID NO:6) (protein)
chain: MYPDLKGKVVAITGAASGLGKAMAIRFGKEQAKVVINYQSNKQDPNEVKEEVIKAGGEAVVVQGDVTKEEDVKNIVQTAIKEFGTLDIMINNKGLENPVPSHEMPLKDWDKVIGTNLTGAFLGSREAIKYFVENDIKGNVINMSSVHEVIPWPLFVHYAASKGGIKLMTETLALEYAPKGIRVNNIGPGAINTPRNAEKFADPKQKADVESMIPMGYIGEPEEIAAVAAWLASKEASYVTGITLFADGGMTQYPSFQAGRG
modifications: I195R A93K Y39Q mutant GDH coding sequence
- total turnover number (TTN) [1]: 39,000
- conversion of trans-2-hexen-1-al [2]: ~49%
- conversion (reduction) of cytochrome c (cytochrome c): > 99%
- Kcat ([3]; cofactor NADP^+): 4.4 ± 0.034 s⁻¹
- Km ([3]; cofactor NADP^+): 0.61 ± 0.15 mM
- decrease of catalytic efficiency on NADP^+ [3]: 1,600 fold
- decrease of catalytic efficiency on NADP^+ ([3]; listed as GDH Triple): 38 fold
- conversion of nitrofurazone [4]: ~92%
- Expression level [5]: 25.37 μg protein/ml culture
- conversion of citral [6]: ~76%
- conversion of 4-phenyl-3-butyne-2-one [7]: > 99%
- increase in catalytic efficiency over the wild-type enzyme towards NMN^+ [8]: 1,000 fold
- improvement in catalytic efficiency over I195R ([8]; NMN^+): 4 fold
- Kcat ([8]; cofactor NMN^+): 3.1 ± 0.037 s⁻¹
- Km ([8]; cofactor NMN^+): 6.1 ± 0.83 mM
- overall specificity switch towards NMN^+ from NADP^+ [8]: 1,600,000 fold
- overall specificity switch towards NMN^+ from NAD^+ [8]: 38,000 fold
- overall specificity switch towards NMN^+ from NADP^+ ([8]; listed as GDH Triple): 38,000 fold
- overall specificity switch towards NMN^+ from NAD^+ ([8]; listed as GDH Triple): 1,600,000 fold
- initial productivity of levodione ([9]; NMN^+ as cycling cofactor, XenA in excess, GDH 11.7 μM): ~1.15 µM/s
- initial turnover frequency ([9]; NMN^+, Bs GDH loading 11.7 μM): ~0.10 s⁻¹
- improvement of NMN^+-dependent productivity ([9]; versus wild type Bs GDH): 22 fold
- Kcat ([10]; cofactor NAD^+): 0.41 ± 0.026 s⁻¹
- Km ([10]; cofactor NAD^+): 3.7 ± 0.93 mM
- decrease of catalytic efficiency on NAD^+ [10]: 38 fold
- decrease of catalytic efficiency on NAD^+ ([10]; listed as GDH Triple): 1,600 fold
